Source: article PMC4004960 (Cancer cell, 2014)
Ends that are not written are not given here.

Biological target: BRD4-BD2 (recombinant, NMR and fluorescence anisotropy) (UniProt O60885 333-460)
Assay: fluorescence polarisation

Question: SPAQGK(Ac)RGK(Ac)KSA (peptide, UniProt Q15672 68-79, looked up) [Twist-K73ac/K76ac peptide (residues 68-79)] was tested. Which Ki did it give?
Answer: 800 µM
